For test [1], the target named is T1, recombinant human Siglec-7 protein (human, UniProt Q9Y286 19-353, limits assumed). The test can be described thus: SPR, DB7.2 and recombinant human Siglec-7 protein.
The target in test [2] is T2, Siglec 9 on 293T cells (UniProt Q9Y336 18-463, limits assumed).
T2 construct: whole, on cells
Description: flow cytometry on Siglec 9 overexpressing HEK293T cells. The source says: BD LSRII flow cytometer was used for staining of cells. BD FACS Aria cell sorter (BD Biosciences) was used for the sorting of Siglec 7/FSHR stably expressing cells. Anti-human antibodies used were directly fluorochrome conjugated. […] For the non-conjugated primary antibodies, PE-secondary anti-human (H+L) (Invitrogen), PE/AF647—secondary anti-human F(ab′)₂ (Jackson ImmunoResearch Laboratories Inc) and APC—secondary anti-mouse IgG (Poly4053, BioLegend) were used. Live/Dead Violet viability kit (Invitrogen) was used to exclude dead cells from analysis.
Three mAbs targeting Siglec 7 were sequenced and studied in more detail. […] (FIG. 10B). […] Cells were labeled with DAPI (nuclei), GFP (Siglec 7) and Texas Red (Anti-Siglec 7).
(In general: In flow cytometry, cells or beads pass a laser one at a time.)

The target of test [3] is T3, human Siglec 7 on cells (human, UniProt Q9Y286 19-467). The test can be described thus: cell-based or functional assay.
The target of test [4] is T1, recombinant human Siglec-7 protein. Description: SPR, titration of anti-Siglec-7 on recombinant human Siglec-7 protein. A general note: Surface plasmon resonance follows binding to a sensor surface in real time, without labels.
Test [5] concerns the target T3, human Siglec 7 on cells. Description: flow cytometry of human NK cells with sera of DMAb-electroporated mice, anti-human IgG.

The values that follow come from patent publication US20250223369A1 (WISTAR INSTITUTE OF ANATOMY AND BIOLOGY, published 2025).

T2 sequence (Q9Y336 18-463 limits assumed): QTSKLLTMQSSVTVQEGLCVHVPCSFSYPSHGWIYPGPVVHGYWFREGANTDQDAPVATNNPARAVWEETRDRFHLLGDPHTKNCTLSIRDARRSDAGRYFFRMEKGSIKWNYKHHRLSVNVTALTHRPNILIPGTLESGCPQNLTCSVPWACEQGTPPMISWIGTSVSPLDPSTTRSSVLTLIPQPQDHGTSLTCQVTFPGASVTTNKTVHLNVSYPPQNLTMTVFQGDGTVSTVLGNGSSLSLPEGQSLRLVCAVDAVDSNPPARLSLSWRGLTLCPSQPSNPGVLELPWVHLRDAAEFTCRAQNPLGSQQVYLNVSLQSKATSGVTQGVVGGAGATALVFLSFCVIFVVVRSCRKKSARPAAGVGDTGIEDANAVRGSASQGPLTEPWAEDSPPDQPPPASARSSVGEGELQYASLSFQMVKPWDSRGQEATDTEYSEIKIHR
T1 sequence (Q9Y286 19-353 limits assumed): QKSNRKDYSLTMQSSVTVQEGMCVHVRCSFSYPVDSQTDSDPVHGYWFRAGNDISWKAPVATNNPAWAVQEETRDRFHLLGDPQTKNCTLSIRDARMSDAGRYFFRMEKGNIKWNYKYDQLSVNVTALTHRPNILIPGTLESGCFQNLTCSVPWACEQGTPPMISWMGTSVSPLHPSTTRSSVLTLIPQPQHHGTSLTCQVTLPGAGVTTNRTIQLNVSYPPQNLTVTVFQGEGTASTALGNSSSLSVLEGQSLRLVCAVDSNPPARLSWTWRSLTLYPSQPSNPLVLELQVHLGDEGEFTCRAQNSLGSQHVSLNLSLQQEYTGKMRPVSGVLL
T3 sequence (Q9Y286 19-467): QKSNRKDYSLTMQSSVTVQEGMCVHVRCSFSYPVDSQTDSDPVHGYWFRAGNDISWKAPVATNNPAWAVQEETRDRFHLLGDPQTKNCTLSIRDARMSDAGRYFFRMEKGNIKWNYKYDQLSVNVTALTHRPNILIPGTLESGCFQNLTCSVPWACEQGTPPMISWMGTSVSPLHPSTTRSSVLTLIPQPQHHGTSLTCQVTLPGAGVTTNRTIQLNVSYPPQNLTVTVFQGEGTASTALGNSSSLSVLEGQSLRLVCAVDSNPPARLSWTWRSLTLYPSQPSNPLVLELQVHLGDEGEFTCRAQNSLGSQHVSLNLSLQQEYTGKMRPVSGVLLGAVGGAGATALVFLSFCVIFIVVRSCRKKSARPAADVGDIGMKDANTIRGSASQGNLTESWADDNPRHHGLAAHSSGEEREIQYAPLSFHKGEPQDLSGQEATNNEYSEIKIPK

B1: DB-S7-2 anti-Siglec 7 antibody (antibody, V domains shown)
VH: QVQLVESGGGVVQPGRSLRLSCAASGFTFRTDAMHWVRQAPGKGLEWVAVIWYDGSIKYHADSVKGRFTISRDNSKNTLYLEMNSLRAEDTAVYYCARDRSNSLDHWGQGILVSVSS
VL: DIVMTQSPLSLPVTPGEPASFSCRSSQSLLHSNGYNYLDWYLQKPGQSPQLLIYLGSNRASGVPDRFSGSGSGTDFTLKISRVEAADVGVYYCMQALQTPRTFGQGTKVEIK
notes: Raised in H2L2 mice (hybridoma clone in the first screens), then expressed as human IgG1 HC and LC from pVax1 in Expi293F cells or in mice (DMAb); also called DB7.2; DB-S7-2 DMAb
One may read the koff as the first-order rate constant of dissociation. The term kon denotes the rate constant with which the complex forms. By Kd is commonly meant the constant that tells how readily two partners part at equilibrium. Turning to B1, in test [1], the koff was 3.6e-05 s⁻¹, the kon was 830000 M⁻¹ s⁻¹ and the t1/2 came to 5.33 h. Also, the binding result in test [2] was “no binding”. In addition, in test [3], the “killing of OVISE cells with human PBMCs (cell index vs dose), IC50” value came to 82.7 nM and the “killing of PEO4 cells with human PBMCs (xCELLigence), EC50” value was 68.9 nM. Further, the Kd in test [4] is 0.044 nM.

B2: DB-S7-1 anti-Siglec 7 antibody (antibody, V domains shown)
VH: QVQLVESGGGVVQPGRSLRLSCAASGFTFRTDAMHWVRQAPGKGLEWVAVIWYDGSIKYHADSVKGRFTISRDNSKNTLYLEMNSLRAEDTAVYYCARDRSNSLDHWGQGILVSVSS
VL: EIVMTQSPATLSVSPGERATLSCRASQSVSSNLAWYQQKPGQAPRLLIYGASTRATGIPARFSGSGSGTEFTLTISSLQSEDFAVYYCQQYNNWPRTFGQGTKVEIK
notes: Raised in H2L2 mice (hybridoma clone in the first screens), then expressed as human IgG1 HC and LC from pVax1 in Expi293F cells or in mice (DMAb); also called DB7.1; DB-S7-1 DMAb
In the case of B2, the binding result in test [2] is “no binding”; in test [5], “binds”.

B3: DB7.2_TM Mod (antibody, V domains shown)
VH: QVQLVESGGGVVQPGRSLRLSCAASGFTFRTDAMHWVRQAPGKGLEWVAVIWYDGSIKYHADSVKGRFTISRDNSKNTLYLEMNSLRAEDTAVYYCARDRSNSLDHWGQGILVSVSS
VL: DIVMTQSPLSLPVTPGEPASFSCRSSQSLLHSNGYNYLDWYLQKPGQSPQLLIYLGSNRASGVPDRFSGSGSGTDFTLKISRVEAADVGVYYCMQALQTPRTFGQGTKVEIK
On to B3, for which the “killing of OVISE cells with human PBMCs (cell index vs dose), IC50” value in test [3] came out at 192 nM.

B4: DB-S7-7 anti-Siglec 7 antibody (antibody, V domains shown)
VH: QVQLVESGGGVVQPGRSLRLSCAASGFTFRTDAMHWVRQAPGKGLEWVAVIWYDGSIKYHADSVKGRFTISRDNSKNTLYLEMNSLRAEDTAVYYCARDRSNSLDHWGQGILVSVSS
VL: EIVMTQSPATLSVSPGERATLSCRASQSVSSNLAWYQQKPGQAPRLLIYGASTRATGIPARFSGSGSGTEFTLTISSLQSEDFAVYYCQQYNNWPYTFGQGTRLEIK
notes: Raised in H2L2 mice (hybridoma clone in the first screens), then expressed as human IgG1 HC and LC from pVax1 in Expi293F cells or in mice (DMAb); also called DB7.7; DB-S7-7 DMAb
Take B4: the binding result in test [2] is “no binding”.
